System: PP2Ac
Experiment: Summary of detection properties of C-terminal PP2Ac antibodies (Table 4), PP2Ac
Format: binding
Experimental: Examples of antibodies with a preference for non-methylated PP2Ac are mouse monoclonal antibody 4B7 (Yu (2001), Mol Biol Cell 12, 185-199), mouse monoclonal antibody 1D7 generated by the Ogris lab but also the rabbit monoclonal E155 antibody from Abeam and the mouse monoclonal F-8 from SCBT that were thought to be specific for pTyr^307.
E155 was tested for its specificity to phosphorylation and methylation on the carboxy-terminus of PP2A on 6 different undecapeptides by ELISA (FIGS. 18 and 19). Flat-bottom Nunc-Immuno Medisorp 96-well ELISA plates (Thermo; 467320) were coated o/n at 4° C. with 50 μl of either a peptide of the sequence ac-HVTRRTPDYFL-OH (L309) (SEQ ID NO:18) at a concentration of 2 μg/ml, a peptide of the sequence ac-HVTRRTPDYFL-CH3 (meL309) (SEQ ID NO:18) at a concentration of 2 μg/ml in TBS (137 mM NaCl (AppliChem, #131659, 2.7 mM KCl (AppliChem, #131494.), 24.8 mM Tris (AppliChem, #A1086), pH 7.4 with HCl), with a peptide of the sequence ac-HVTRRpTPDYFL-OH (pT304-L309) (SEQ ID NO:116) at a concentration of 2 μg/ml in TBS, or with a peptide of the sequence ac-HVTRRpTPDYFL-CH3 (pT304-meL309) (SEQ ID NO:116) at a concentration of 2 μg/ml in TBS (FIG. 18). The wells were washed once with TBS, blocked with 200 μl of 2% bovine serum albumin (BSA) (Sigma, A9647) in TBS for 1 hour at RT and washed again once with TBS. […] Bound antibodies were detected colorimetrically by addition of 50 μl of 33 μg/ml […] (TMB) (Sigma, T2885) in 0.1 M sodium acetate pH 6.0 and 0.01% H2O2 (Sigma, H1009). The colorimetric reaction was stopped after 10 min by addition of 50 μl 0.5 M H2SO4, and absorbance was measured at 450 nm and 560 nm with a Perkin Elmer VICTOR® Nivo™ microplate reader. The results from 560 nm read were subtracted from the 450 nm read.
In a further experiment, flat-bottom Nunc-Immuno Medisorp 96-well ELISA plates (Thermo; 467320) were coated o/n at 4° C. with 50 μl of either a peptide of the sequence ac-HVTRRTPDYFL-OH (L309) (SEQ ID NO:18) at a concentration of 2 μg/ml in TBS (137 mM NaCl (AppliChem, #131659, 2.7 mM KCl (AppliChem, #131494.), 24.8 mM Tris (AppliChem, #A1086), pH 7.4 with HCl), a peptide of the sequence ac-HVTRRTPDYFL-CH3 (meL309) (SEQ ID NO:18) at a concentration of 2 μg/ml in TBS (137 mM NaCl (AppliChem, #131659.1214, 2.7 mM KCl (AppliChem, #131494.1211) pH 7.4 with HCl), with a peptide of the sequence ac-HVTRRTPDpYFL-OH (pY307-L309) (SEQ ID NO:117) at a concentration of 2 μg/ml in TBS or with a peptide of the sequence ac-HVTRRTPDpYFL-CH3 (pY307-meL309) (SEQ ID NO:117) at a concentration of 2 μg/ml in TBS (FIG. 19). […] The colorimetric reaction was stopped after 10 min by addition of 50 μl 0.5 M H2SO4, and absorbance was measured at 450 nm and 570 nm with a Biotek Synergy™ H1 microplate reader. […]

[1] = antibodies screened for binding methylated PP2Ac

B1: 7C10-C5: α-carboxymethylation specific mouse monoclonal IgG1 antibody from single clone hybridoma 7C10-C5 (DSM ACC3350) (antibody)
heavy: MYRMQLLSCIALSLALVTNSDVQLQESGPGLVKPSQSLSLTCSVTGYSITSGYYWNWIRQFPGNKLEWMGYISYDGSNNYNPSLKNRISITRDTSKNQFFLKLNSVTTEDTATYYCAGRFAYWGQGTLVTVSAAKTTAPSVYPLAPVCGDTTGSSVTLGCLVKGYFPEPVTLTWNSGSLSSGVHTFPAVLQSDLYTLSSSVTVTSSTWPSQSITCNVAHPASSTKVDKKIEPRGPTIKPCPPCKCPAPNLLGGPSVFIFPPKIKDVLMISLSPIVTCVVVDVSEDDPDVQISWFVNNVEVHTAQTQTHREDYNSTLRVVSALPIQHQDWMSGKEFKCKVNNKDLPAPIERTISKPKGSVRAPQVYVLPPPEEEMTKKQVTLTCMVTDFMPEDIYVEWTNNGKTELNYKNTEPVLDSDGSYFMYSKLRVEKKNWVERNSYSCSVVHEGLHNHHTTKSFSRTPGK
light: MDMRVPAQLLGLLLLWLSGARCDVLMTQTPLSLPVSLGDQASISCRSSQSIVHSNGNTYLEWYLQKPGQSPKLLIYKVSNRFSGVPDRFSGSGSGTDFTLKINRVEAEDLGVYYCFQGSHVPWTFGGGTKLEIKADAAPTVSIFPPSSEQLTSGGASVVCFLNNFYPKDINVKWKIDGSERQNGVLNSWTDQDSKDSTYSMSSTLTLTKDEYERHNSYTCEATHKTSTSPIVKSFNRNEC
modifications: Amino acid sequence of the recombinant 7C10-C5 heavy chain; Amino acid sequence of the recombinant 7C10-C5 light chain
B1 was tested, and the “meLeu^309” value (PP2Ac carboxymethylated at Leu309) was “*** (*** 80-100%)”, the “pThr^304 meLeu^309” value [1] was “**** (**** >100%)” and the “pTyr^307 meLeu^309” value [1] was “*** (*** 80-100%)”. The unmodified (unmodified PP2Ac C-terminus) was “— (— <15%)”.

— US20230121197A1, “ANTIBODIES SPECIFICALLY BINDING THE CARBOXYMETHYLATED CATALYTIC SUBUNIT OF PROTEIN PHOSPHATASE 2A” (Medizinische Universität Wien, priority 2020, published 2023)
